Data taken from paper PMC4003243 (The Journal of Cell Biology, 2014).
Where no end group is shown, it is not given here.

Target: His-tagged talin head (1–406 aa) (human, UniProt Q9Y490 1-406)
Assay: BLI

His-tagged talin head (1–406 aa), sequence (Q9Y490 1-406): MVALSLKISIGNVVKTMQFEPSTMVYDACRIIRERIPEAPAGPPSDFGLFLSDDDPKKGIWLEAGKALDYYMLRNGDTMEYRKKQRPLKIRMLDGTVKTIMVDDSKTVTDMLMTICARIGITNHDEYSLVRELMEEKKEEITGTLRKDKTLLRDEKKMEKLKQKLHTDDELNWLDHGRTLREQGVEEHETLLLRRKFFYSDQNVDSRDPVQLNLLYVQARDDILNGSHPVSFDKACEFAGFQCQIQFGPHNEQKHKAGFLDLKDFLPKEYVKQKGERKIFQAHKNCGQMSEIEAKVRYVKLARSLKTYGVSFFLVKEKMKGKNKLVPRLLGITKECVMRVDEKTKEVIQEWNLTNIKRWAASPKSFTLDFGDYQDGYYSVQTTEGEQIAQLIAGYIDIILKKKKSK

Row | Binder | fold higher affinity over wild-type β3-tail [fold] | binding result
1 | KLLITIHDRKEFAKFEEERARAKWVENPLYKEATSTFTNITYRGT (domain or fragment, mouse, UniProt O54890 741-787, looked up, also: GST fusion) [GST–β3-tail, β3-VE chimera] | ~20 | –
2 | KLLITIHDRKEFAKFEEERARAKWDTANNPLYKEATSTFTNITYRGT (domain or fragment, mouse, UniProt O54890 741-787, looked up, also: GST fusion) [GST–β3-tail (716–762 aa), wild type] | – | binds
